Experimental data from PMC11274882, “RNA Binding Properties of SOX Family Members”.

Key:
[1] = biological target: T1, SOX30 HMG-box (UniProt O94993 335-423); assay: fluorescence polarisation; FP: 50 mM Tris, 125 mM NaCl, pH 8.0, 80 nM RNA, temperature not stated; EMSA: equal volumes of 100 uM protein and ssDNA, room temperature 15 min, 1.5% agarose; conditions: protein: recombinant; tags: 6xHis; label: 3' FAM; hairpin
T1 sequence: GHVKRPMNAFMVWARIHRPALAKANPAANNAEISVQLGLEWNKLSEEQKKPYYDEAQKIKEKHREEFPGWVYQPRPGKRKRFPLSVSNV

[2] = biological target: T2, SOX2 HMG-box (UniProt P48431 39-127); assay: as above; conditions: protein: recombinant; label: 3' FAM; hairpin
[3] = biological target: T3, SOX17 HMG-box WT (UniProt Q9H6I2 66-145); assay: as above; conditions: protein: recombinant; tags: 6xHis; label: 3' FAM; hairpin
[4] = biological target: T4, SOX17 dC HMG-box (UniProt Q9H6I2 66-137); assay: as above; conditions: protein: recombinant; tags: 6xHis; label: 3' FAM; hairpin
[5] = biological target: T5, SOX17 dCN HMG-box (UniProt Q9H6I2 74-137); assay: as above; conditions: protein: recombinant; tags: 6xHis; label: 3' FAM; hairpin
[6] = biological target: SOX11 HMG-box (UniProt P35716 47-135); assay: EMSA; FP: 50 mM Tris, 125 mM NaCl, pH 8.0, 80 nM RNA, temperature not stated; EMSA: equal volumes of 100 uM protein and ssDNA, room temperature 15 min, 1.5% agarose; conditions: protein: recombinant; tags: 6xHis; named 60-mer; length as printed may differ
[7] = biological target: T1, SOX30 HMG-box; assay: as above; conditions: protein: recombinant; tags: 6xHis; named 60-mer; length as printed may differ
[8] = biological target: T3, SOX17 HMG-box WT; assay: as above; conditions: protein: recombinant, tags: 6xHis
[9] = biological target: SOX6 HMG-box (UniProt P35712 619-707); assay: as above; conditions: protein: recombinant; named 60-mer; length as printed may differ
[10] = biological target: SRY HMG-box (UniProt Q05066 58-140); assay: as above; conditions: protein: recombinant; tags: 6xHis; named 60-mer; length as printed may differ
[11] = biological target: SOX15 HMG-box (UniProt O60248 47-135); assay: as above; conditions: protein: recombinant; tags: 6xHis; named 60-mer; length as printed may differ
[12] = biological target: SOX9 HMG-box (UniProt P48436 103-183); assay: as above; conditions: protein: recombinant; tags: 6xHis; named 60-mer; length as printed may differ
[13] = biological target: T2, SOX2 HMG-box; assay: EMSA; complex stays in well; FP: 50 mM Tris, 125 mM NaCl, pH 8.0, 80 nM RNA, temperature not stated; EMSA: equal volumes of 100 uM protein and ssDNA, room temperature 15 min, 1.5% agarose; conditions: protein: recombinant; named 60-mer; length as printed may differ
[14] = biological target: SOX21 HMG-box (UniProt Q9Y651 6-94); assay: as above; conditions: protein: recombinant; tags: 6xHis; named 60-mer; length as printed may differ
[15] = biological target: T4, SOX17 dC HMG-box; assay: EMSA; FP: 50 mM Tris, 125 mM NaCl, pH 8.0, 80 nM RNA, temperature not stated; EMSA: equal volumes of 100 uM protein and ssDNA, room temperature 15 min, 1.5% agarose; conditions: protein: recombinant; tags: 6xHis
[16] = biological target: T5, SOX17 dCN HMG-box; assay: as above; conditions: protein: recombinant; tags: 6xHis
[17] = biological target: SOX17 dN HMG-box (UniProt Q9H6I2 74-145); assay: as above; conditions: protein: recombinant; tags: 6xHis
[18] = biological target: T3, SOX17 HMG-box WT; assay: NMR HSQC titration; 100 uM protein, 25-100 uM ssDNA; shifts at R125-R138, I68, A74, M76, E97, K100, W106; FP: 50 mM Tris, 125 mM NaCl, pH 8.0, 80 nM RNA, temperature not stated; EMSA: equal volumes of 100 uM protein and ssDNA, room temperature 15 min, 1.5% agarose; conditions: protein: recombinant; tags: 6xHis

T3 sequence (Q9H6I2 66-145): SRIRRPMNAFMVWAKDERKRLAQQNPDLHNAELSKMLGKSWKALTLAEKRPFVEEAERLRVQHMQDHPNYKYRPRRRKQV
T2 sequence (P48431 39-127): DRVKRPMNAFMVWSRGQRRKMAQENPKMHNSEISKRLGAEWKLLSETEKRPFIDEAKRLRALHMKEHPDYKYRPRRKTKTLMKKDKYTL
T5 sequence (Q9H6I2 74-137): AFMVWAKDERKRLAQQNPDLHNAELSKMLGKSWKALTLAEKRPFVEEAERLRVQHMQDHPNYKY
T4 sequence (Q9H6I2 66-137): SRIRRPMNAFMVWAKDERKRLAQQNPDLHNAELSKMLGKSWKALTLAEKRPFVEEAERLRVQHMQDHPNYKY
Sequence of SRY HMG-box (Q05066 58-140): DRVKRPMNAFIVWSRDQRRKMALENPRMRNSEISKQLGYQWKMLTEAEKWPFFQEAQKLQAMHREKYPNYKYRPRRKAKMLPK
Sequence of SOX15 HMG-box (O60248 47-135): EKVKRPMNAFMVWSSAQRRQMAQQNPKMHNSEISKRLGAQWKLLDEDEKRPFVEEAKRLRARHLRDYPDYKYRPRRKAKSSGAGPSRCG
Sequence of SOX11 HMG-box (P35716 47-135): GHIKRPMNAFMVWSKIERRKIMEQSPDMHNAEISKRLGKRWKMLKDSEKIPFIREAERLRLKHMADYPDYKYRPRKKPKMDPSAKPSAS
Sequence of SOX17 dN HMG-box (Q9H6I2 74-145): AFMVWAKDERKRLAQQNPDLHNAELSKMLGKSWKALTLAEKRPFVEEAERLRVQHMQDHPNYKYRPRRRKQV
Sequence of SOX6 HMG-box (P35712 619-707): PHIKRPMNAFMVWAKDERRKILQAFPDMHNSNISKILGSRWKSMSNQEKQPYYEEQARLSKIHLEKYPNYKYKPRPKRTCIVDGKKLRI
Sequence of SOX9 HMG-box (P48436 103-183): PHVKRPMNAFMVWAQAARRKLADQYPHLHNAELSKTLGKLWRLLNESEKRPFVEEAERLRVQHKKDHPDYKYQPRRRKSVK
Sequence of SOX21 HMG-box (Q9Y651 6-94): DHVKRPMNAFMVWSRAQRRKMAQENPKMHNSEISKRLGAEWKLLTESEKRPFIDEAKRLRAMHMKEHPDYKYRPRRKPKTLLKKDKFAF

In the case of GGUCGCCGUGGCCACUUCGAAAGGGGUGGAAAGGGCGACC (structured_RNA) [40-mer RNA, ES2 lncRNA hairpin Loop A], the binding result [1] is reported as “no binding”, the Kd [2] is reported as about 57 nM and the Kd [3] is reported as about 327 nM. GGUCGCCGUGGCCACUUCGAAAGGGGUGGAAAGGGCGACC (structured_RNA) [40-mer RNA, ES2 lncRNA hairpin Loop A]: no binding [4]; no binding [5].

B1: 60-mer ssDNA (ssDNA)
DNA: GTTAGAGGTGCCCCACAGGCGGCGGTTAGTATTCCCCGCCGCCTGGGGCACCGGGGCAC
B1: binds [6]; no binding [7]; binds ([8]; named 60-mer, length as printed may differ). B1: binds [9]; binds [10]; binds [11]. B1: binds [12]; binds [13]; binds [14].

CCCCATCTTAGTATATTAGTTA (ssDNA) [22-mer ssDNA]: binds [8]; no binding [15]; no binding [16]. CCCCATCTTAGTATATTAGTTA (ssDNA) [22-mer ssDNA]: binds [17].

ATCGATCGATCG (ssDNA) [12-mer ssDNA]: binds [18].
